From patent US20080139790A1 (ARANA THERAPEUTICS, published 2008)

T1: rat MOG (myelin-oligodendrocyte glycoprotein) (rat, UniProt Q63345 28-245)
T1 construct: mature; Not a purified protein: identified by the band size of about 25 kDa in a western blot of rat spinal cord lysate; also called antigen of M26; protein of size 25 kDa
T1 sequence (looked up): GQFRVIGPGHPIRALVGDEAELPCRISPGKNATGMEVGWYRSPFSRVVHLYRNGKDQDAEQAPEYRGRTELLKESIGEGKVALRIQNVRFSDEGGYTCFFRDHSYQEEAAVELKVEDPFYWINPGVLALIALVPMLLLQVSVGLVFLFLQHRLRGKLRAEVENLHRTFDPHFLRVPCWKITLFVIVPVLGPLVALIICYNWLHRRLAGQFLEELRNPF

B1: AB138 (antibody, human IgG1, kappa, V domains shown)
VH: QVQLVQSGAEVKKPGASVKVSCKASGYTFTSYAISWARQPPGQGLEWMGAFDPEYGSTTYAQKFQGRVTMTADTSTSTAYMELSSLRPEDTAVYYCARDVNFGNYFDYWGQGTLVTVSS
VL: ELVMTQSPATLSLSPGERATVSCRAGQSVSYYLAWYQQKPGQAPRLLIYGASTRATGIPARFSGSRSGTDFTLTISSLEPEDFAVYYCQQYSSWPPTFGQGTKLEIKR
notes: Expressed in CHOK1SV cells, purified on Protein A; also called marmoset human fusion antibody; MOG specific marmoset derived antibody variable regions with human IgG1 / kappa constant regions
B2: CDR2-substituted domain antibody SEQ ID No 26 (other)
chain: DIQMTQSPSSLSASGDRVTITCRASQSIDSYLHWYQQKPGKAPKLLIYAASNRASGVPSRFSGSGSGTDFTLTISSLQPEDFATYYCQQVVWRPFTFGQGTKVEIKR
notes: not shown: 6xHIS tag introduced by vector pBAD/gIII
B3: CDR2-substituted domain antibody SEQ ID No 28 (other)
chain: DIQMTQSPSSLSASGDRVTITCRASQSIDSYLHWYQQKPGKAPKLLIYYASFLQGGVPSRFSGSGSGTDFTLTISSLQPEDFATYYCQQVVWRPFTFGQGTKVEIKR
notes: as for B2
B4: unsubstituted acceptor anti-TNFα domain antibody (SEQ ID No: 7) (other)
chain: DIQMTQSPSSLSASGDRVTITCRASQSIDSYLHWYQQKPGKAPKLLIYSASELQSGVPSRFSGSGSGTDFTLTISSLQPEDFATYYCQQVVWRPFTFGQGTKVEIKR
notes: Single variable domain (domain antibody, dAb) from Basran et al. WO 2004/081026, CDR2 SASELQS; also called acceptor domain antibody; not shown: 6xHIS tag from vector pBAD/gIII (detection was by anti-HIS antibody); its positi
B5: CDR2-substituted domain antibody SEQ ID No 31 (other)
chain: DIQMTQSPSSLSASGDRVTITCRASQSIDSYLHWYQQKPGKAPKLLIYDASSLQPGVPSRFSGSGSGTDFTLTISSLQPEDFATYYCQQVVWRPFTFGQGTKVEIKR
notes: as for B2
B6: CDR2-substituted domain antibody SEQ ID No 25 (other)
chain: DIQMTQSPSSLSASGDRVTITCRASQSIDSYLHWYQQKPGKAPKLLIYKVSNRASGVPSRFSGSGSGTDFTLTISSLQPEDFATYYCQQVVWRPFTFGQGTKVEIKR
notes: Secretory signal peptide from the vector, expressed in E. coli periplasm; not shown: 6xHIS tag introduced by vector pBAD/gIII
B7: CDR2-substituted domain antibody SEQ ID No 29 (other)
chain: DIQMTQSPSSLSASGDRVTITCRASQSIDSYLHWYQQKPGKAPKLLIYRVSNRASGVPSRFSGSGSGTDFTLTISSLQPEDFATYYCQQVVWRPFTFGQGTKVEIKR
notes: as for B2

Experiments:
[1] = biological target: T1, rat MOG (myelin-oligodendrocyte …); experiment: western blot of rat spinal cord lysate, AB138 at 10 ug/mL, anti-human IgG HRP
Experimental: The ability of AB138 to retain binding to the antigen of M26, rat MOG (myelin-oligodendrocyte glycoprotein), was investigated by Western Blot. 130 mg of rat spinal cord (IMVS, Australia) was homogenized in 1.8 ml CelLytic M Cell Lysis Reagent (SIGMA, C2978) and incubated for 30 minutes at 4° C. Further homogenization was performed by drawing the lysate through a 27 g1/2 needle several times followed by centrifugation at 4° C. and 13000 g for 30 minutes. The pellet and supernatant was diluted into SDS-PAGE sample buffer (125 mM Tris-HCl pH 6.8, 5% SDS, 0.25% bromophenol blue, 25% glycerol). Along with this 200 μl CHOK1SV cells at 1×10⁶ viable cells per ml were spun down at 13000×g at 4° C. for 1 minute and resuspended in 200 μl CelLytic M Cell Lysis Reagent (SIGMA). Following centrifugation at 4° C. and 13000×g for 30 minutes the supernatant was mixed with the appropriate amount of SDS-PAGE sample buffer. All samples, along with a sample of molecular weight markers, were run on a 4-20% Novex pre-cast gel (Invitrogen, Australia) for 2 hours at 120V. Proteins were then transferred to PVDF (BioRad, Australia) using a western blot apparatus in 1× Tris-Glycine Buffer with 20% methanol (BioRad, Cat 161+-0771) at 4° C. at 250 mA for 2 hours. […] Following washing, bound antibody was detected using the ECL Western Blotting Analysis System, (Amersham Biosciences Cat: RPN2109). […]

[2] = biological target: T2, TNF-α (Peprotech Cat No: 300-01A) (UniProt P01375 77-233); experiment: ELISA, TNF-α coated at 1 µg/mL, detection with anti-HIS HRP
T2 construct: Coated on the ELISA plate at 1 µg/mL
T2 sequence (P01375 77-233 limits assumed): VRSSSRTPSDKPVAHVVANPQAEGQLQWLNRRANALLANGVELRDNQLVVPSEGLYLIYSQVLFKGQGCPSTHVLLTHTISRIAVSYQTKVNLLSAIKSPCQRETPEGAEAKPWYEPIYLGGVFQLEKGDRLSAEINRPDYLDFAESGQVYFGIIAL
Experimental: TNF-α (Peprotech Cat No: 300-01A) was diluted to 1 μg/mL in carbonate coating buffer ([…] pH 9.6). 100 μL of this solution was added to a well of a 96 well plate and incubated at 4° C. overnight in a humidified container. The plate was then washed three times with wash buffer (0.01M PBS pH 7.2, 0.05% Tween-20) and then three times with 0.01M PBS pH 7.2. The wells were then blocked by adding 200 μL blocking buffer (1% w/v BSA in 0.01M PBS pH 7.2) to each well and incubating the plate at 25° C., in a humidified container, for 1 hour. Desalted domain antibody protein sample was diluted in antibody diluent (1% w/v BSA, 0.05% Tween-20 in 0.01M PBS pH 7.2) and added to the wells contain TNF-α and allowed to incubate for 1 hour at 25° C. The plate was then washed as previously described. 100 μL of Anti-HIS antibody HRP conjugate (Sigma-Aldrich, Australia Cat No: A7058) at 1:2000 in antibody diluent was used to detect bound domain antibody. Wells with antibody diluent only were used to assess background absorbance. After incubation at 25° C., in a humidified container, for 1 hour the plate washed again as previously described. 100 μL TMB substrate solution (Zymed, Cat No: 00-2023) was added to each well and the colour allowed to develop for 4 min. 100 μL of 1M HCl was added to terminate the colour development reaction and absorbance was determined at 450 nm (ref. 620 nm)

Binder | binding result [1] | binding result [2]
B1 | binds | –
B2 | – | binds
B3 | – | binds
B4 | – | binds
B5 | – | binds
B6 | – | binds
B7 | – | binds
